Data from patent publication US20240117038A1 (Ablynx, published 2024).

T1: human CX3CR1 T280M (human, UniProt P49238 1-355)
T1 construct: Transiently transfected in HEK293T cells (pcDNA3.1); also called huCX3CR1 variant T280M (Rs3732378)
T1 sequence: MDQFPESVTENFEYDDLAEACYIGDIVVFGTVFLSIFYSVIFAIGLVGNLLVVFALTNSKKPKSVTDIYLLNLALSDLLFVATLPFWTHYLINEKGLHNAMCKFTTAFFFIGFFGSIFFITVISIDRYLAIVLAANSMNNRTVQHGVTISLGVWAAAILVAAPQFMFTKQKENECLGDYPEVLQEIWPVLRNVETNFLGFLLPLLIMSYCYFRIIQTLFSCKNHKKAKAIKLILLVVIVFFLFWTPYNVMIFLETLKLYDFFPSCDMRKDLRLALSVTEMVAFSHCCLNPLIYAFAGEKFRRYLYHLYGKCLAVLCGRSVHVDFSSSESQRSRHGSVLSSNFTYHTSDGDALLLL

T2: human CX3CR1 (human, UniProt P49238 1-355)
T2 construct: Overexpressed on CHO K1, Ba/F3 or HEK293T cells; also called huCX3CR1; hCX3CR1
T2 sequence: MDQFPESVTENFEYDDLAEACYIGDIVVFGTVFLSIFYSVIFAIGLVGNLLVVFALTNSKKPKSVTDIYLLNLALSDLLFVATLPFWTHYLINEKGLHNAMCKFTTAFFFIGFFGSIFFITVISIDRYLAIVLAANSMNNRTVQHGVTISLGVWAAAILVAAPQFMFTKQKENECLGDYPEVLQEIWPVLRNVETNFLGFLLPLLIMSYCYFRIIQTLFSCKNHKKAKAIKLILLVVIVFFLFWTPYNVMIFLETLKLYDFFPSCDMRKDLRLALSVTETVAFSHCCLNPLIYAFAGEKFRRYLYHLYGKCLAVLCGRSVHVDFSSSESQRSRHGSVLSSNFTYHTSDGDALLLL

T3: cynomolgus CX3CR1 (cynomolgus monkey (Macaca fascicularis), UniProt P49238 1-355 (human entry))
T3 construct: Overexpressed on CHO K1 cells; also called cyno CX3CR1; cyCX3CR1
T3 chain: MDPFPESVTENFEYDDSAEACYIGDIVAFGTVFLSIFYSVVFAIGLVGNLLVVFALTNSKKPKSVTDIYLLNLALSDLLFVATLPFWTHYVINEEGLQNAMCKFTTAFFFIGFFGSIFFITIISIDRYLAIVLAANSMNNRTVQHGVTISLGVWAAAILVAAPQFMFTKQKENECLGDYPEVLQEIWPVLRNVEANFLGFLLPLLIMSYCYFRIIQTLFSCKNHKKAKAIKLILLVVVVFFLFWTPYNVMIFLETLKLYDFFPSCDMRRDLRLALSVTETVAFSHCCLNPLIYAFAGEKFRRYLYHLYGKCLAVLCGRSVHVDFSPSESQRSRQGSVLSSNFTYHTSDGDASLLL


Tests used:
human CX3CR1 T280M = biological target: T1, human CX3CR1 T280M; assay: flow cytometry on transiently transfected HEK293T cells, human CX3CR1 T280M
Procedure: (§1) After washing, serial dilutions of multivalent ISVD construct (starting from 250 nM, 3-fold dilution, 11 points, diluted in assay buffer), were added and incubated for 4 hours at 4° C. Binding was performed in the presence of 30 uM HSA (Sigma-Aldrich, Cat. No. A8763). Plates were then washed 3 times and cells were incubated with an anti-VHH mouse antibody (3300-fold diluted in assay buffer) for 30 minutes at 4′° C. […] Plates were finally washed 3 times and cells were resuspended in PI (Miltenyi Biotec, Cat. No. 130-093-233, 1000-fold diluted in assay buffer). Cell suspensions were analyzed with iQue Screener PLUS (Intellicyt). EC50s were estimated by dose response modelling. Curves were fit using 4 parameter logistic regression in GraphPad (GraphPad Software Inc.). A purified anti-human CX3CR1 antibody [K0124E1] (BioLegend, Cat. No. 355701/355702) was used as positive control to detect CX3CR1 expression on the cell surface.
Two important SNPs are described in huCX3CR1, i.e. V2491 (Rs3732379) and T280M (Rs3732378), which might influence receptor activity and binding by the ISVD. […] Different combinations of these SNPs were introduced in human CX3CR1, and binding by 5 selected multivalent ISVD constructs was assessed with flow cytometry after transient transfection of the huCX3CR1 variants in HEK293T cells.
In short, the CX3CR1 constructs were cloned into pcDNA3.1 (ThermoFisher Scientific, Cat. No. V79020) and plasmid DNA was prepared from Escherichia coli TOP10 cells. HEK293T cells were seeded at a concentration of 1.5E06 cells per T75 flask and incubated overnight at 37° C. in DMEM medium (Gibco, Cat. No. 31966) supplemented with 10% FBS (Sigma. Cat. No. F7524). The medium was then replaced by Opti-MEM medium (Gibco, Cat. No. 31985). A mixture of 9 μg plasmid DNA, 27 μL Fugene 6 (Promega, Cat. No. E2691) in a final volume of 1 mL Opti-MEM was incubated for 15 minutes at room temperature and then added to the cells. After 3 hours incubation at 37° C., 10 mL of DMEM supplemented with 20% FBS was added, and incubation continued.

human CX3CR1 = biological target: T2, human CX3CR1; assay: flow cytometry on CHO K1 huCX3CR1 cells, 30 uM HSA
Procedure: as §1, with “CHO cells overexpressing human or cynomolgus CX3CR1 were generated using techniques known in the art. Cells were harvested and resuspended in assay buffer (PBS, 2% FBS, 0.05% NaN3) and seeded separately in 384-well Bio-One V-bottom plates (Greiner, Cat. No. 781280), with a total of 2E04 cells seeded per well. After” for “After”

cynomolgus CX3CR1 = biological target: T3, cynomolgus CX3CR1; assay: competition flow cytometry vs soluble huCX3CL1-AF647 on CHO K1 cyCX3CR1 cells, 30 uM HSA

Binder	EC50 (human CX3CR1 T280M)	EC50 (human CX3CR1)	top (human CX3CR1)	% inhibition (cynomolgus CX3CR1)	IC50 (cynomolgus CX3CR1)
A041600035 (VHH, Trivalent ISVD construct (two anti-CX3CR1 ISVDs, one anti-albumin ISVD), C-terminal alanine included in the entry; also called 54A12_SO (E1D)-9GS-54A12_SO-9GS-ALB23002-A) DVQLVESGGGSVQPGGSLRLSCAASGSIFSSTAMAWYRQAPGKQRDLVAVISTVGITKYADSVKGRFTISRDNAKNTVYLQMNSLRPEDTALYYCTSDARRGWDTRYWGQGTLVTVSSGGGGSGGGSEVQLVESGGGSVQPGGSLRLSCAASGSIFSSTAMAWYRQAPGKQRDLVAVISTVGITKYADSVKGRFTISRDNAKNTVYLQMNSLRPEDTALYYCTSDARRGWDTRYWGQGTLVTVSSGGGGSGGGSEVQLVESGGGVVQPGGSLRLSCAASGFTFRSFGMSWVRQAPGKGPEWVSSISGSGSDTLYADSVKGRFTISRDNSKNTLYLQMNSLRPEDTALYYCTIGGSLSRSSQGTLVTVSSA	0.2 nM	0.36 nM	50900	105%	1.1 nM
A041600041 (VHH, Trivalent ISVD construct (two anti-CX3CR1 ISVDs, one anti-albumin ISVD), C-terminal alanine included in the entry; also called 54A12_SO (E1D)-9GS-66B02_SO-9GS-ALB23002-A) DVQLVESGGGSVQPGGSLRLSCAASGSIFSSTAMAWYRQAPGKQRDLVAVISTVGITKYADSVKGRFTISRDNAKNTVYLQMNSLRPEDTALYYCTSDARRGWDTRYWGQGTLVTVSSGGGGSGGGSEVQLVESGGGSVQPGGSLRLSCAASGSIFSSTAMAWYRQAPGKRRDLVAAINTVGVTKYADSVKGRFTISRDNAKNTVYLQMNSLRPEDTALYYCTSDPRRGWDTRYWGQGTLVTVSSGGGGSGGGSEVQLVESGGGVVQPGGSLRLSCAASGFTFRSFGMSWVRQAPGKGPEWVSSISGSGSDTLYADSVKGRFTISRDNSKNTLYLQMNSLRPEDTALYYCTIGGSLSRSSQGTLVTVSSA	0.22 nM	0.22 nM	41800	107%	1.8 nM
A041600034 (VHH, Trivalent ISVD construct; also called 54A12_SO (E1D)-9GS-ALB23002-9GS-66B02_SO-A) DVQLVESGGGSVQPGGSLRLSCAASGSIFSSTAMAWYRQAPGKQRDLVAVISTVGITKYADSVKGRFTISRDNAKNTVYLQMNSLRPEDTALYYCTSDARRGWDTRYWGQGTLVTVSSGGGGSGGGSEVQLVESGGGVVQPGGSLRLSCAASGFTFRSFGMSWVRQAPGKGPEWVSSISGSGSDTLYADSVKGRFTISRDNSKNTLYLQMNSLRPEDTALYYCTIGGSLSRSSQGTLVTVSSGGGGSGGGSEVQLVESGGGSVQPGGSLRLSCAASGSIFSSTAMAWYRQAPGKRRDLVAAINTVGVTKYADSVKGRFTISRDNAKNTVYLQMNSLRPEDTALYYCTSDPRRGWDTRYWGQGTLVTVSSA	0.074 nM	0.63 nM	28200	104%	1.8 nM

Now from value to binder:

EC50 (human CX3CR1 T280M)	EC50 (human CX3CR1)	top (human CX3CR1)	% inhibition (cynomolgus CX3CR1)	IC50 (cynomolgus CX3CR1)	Binder
0.16 nM	0.46 nM	28700	104%	1.7 nM	A041600025 (VHH, Trivalent ISVD construct (two anti-CX3CR1 ISVDs, one anti-albumin ISVD), C-terminal alanine included in the entry; also called 54A12_SO (E1D)-9GS-ALB23002-9GS-54A12_SO-A) DVQLVESGGGSVQPGGSLRLSCAASGSIFSSTAMAWYRQAPGKQRDLVAVISTVGITKYADSVKGRFTISRDNAKNTVYLQMNSLRPEDTALYYCTSDARRGWDTRYWGQGTLVTVSSGGGGSGGGSEVQLVESGGGVVQPGGSLRLSCAASGFTFRSFGMSWVRQAPGKGPEWVSSISGSGSDTLYADSVKGRFTISRDNSKNTLYLQMNSLRPEDTALYYCTIGGSLSRSSQGTLVTVSSGGGGSGGGSEVQLVESGGGSVQPGGSLRLSCAASGSIFSSTAMAWYRQAPGKQRDLVAVISTVGITKYADSVKGRFTISRDNAKNTVYLQMNSLRPEDTALYYCTSDARRGWDTRYWGQGTLVTVSSA
0.17 nM	0.17 nM	14600	102%	1.1 nM	A041600085 (VHH, also called 307-9GS-ALB23002-9GS-307 (D1E)-A) DVQLVESGGGLVQPGGSLRLSCAASGSIFSSTAMAWYRQAPGKRRDLVAAISTVGVTKYADSVKGRFTISRDNSKNTVYLQMNSLRPEDTAVYYCTSDPRRGWDTRYWGQGTLVTVSSGGGGSGGGSEVQLVESGGGVVQPGGSLRLSCAASGFTFRSFGMSWVRQAPGKGPEWVSSISGSGSDTLYADSVKGRFTISRDNSKNTLYLQMNSLRPEDTALYYCTIGGSLSRSSQGTLVTVSSGGGGSGGGSEVQLVESGGGLVQPGGSLRLSCAASGSIFSSTAMAWYRQAPGKRRDLVAAISTVGVTKYADSVKGRFTISRDNSKNTVYLQMNSLRPEDTAVYYCTSDPRRGWDTRYWGQGTLVTVSSA
